Measured values published in the Immune Epitope Database (IEDB).

Columns and labels:
Test in all cases: IEDB peptide-MHC binding, purified MHC/competitive/radioactivity; ≥ and ≤ were set here for values at or beyond the usual limits of such assays
Settings in all cases: source organism: Bordetella pertussis
HLA-B*07:02 = target: HLA-B*07:02
HLA-B*53:01 = target: HLA-B*53:01
HLA-B*44:03 = target: HLA-B*44:03
HLA-B*57:01 = target: HLA-B*57:01

RVAPPAVAL
IC50 (HLA-B*07:02): 0.349 µM

MHTIASILL
IC50 (HLA-B*53:01): 7.4 µM

GATRAVDSL
IC50 (HLA-B*07:02): 69.6 µM

VVETAQPLP
IC50 (HLA-B*53:01): 69.9 µM

PASANTLLL
IC50 (HLA-B*07:02): 15.7 µM

AQGKALLYR
IC50 (HLA-B*44:03): ≥ 70.1 µM

WTFHAGYRY
IC50 (HLA-B*57:01): 1.4 µM

RASASRARI
IC50 (HLA-B*57:01): ≥ 70.4 µM

SGEGRVNIG
IC50 (HLA-B*53:01): 3.18 µM
